The values below come from patent US20260070983A1.

The target in experiment [1] is human PD-1 (human) (UniProt Q15116). The experiment in a line: cell-based or functional assay.
In experiment [2] the target is human PD-1 ECD (human). The experiment in a line: SPR, 37 °C.
human PD-1 ECD (human), sequence (Q15116 25-170): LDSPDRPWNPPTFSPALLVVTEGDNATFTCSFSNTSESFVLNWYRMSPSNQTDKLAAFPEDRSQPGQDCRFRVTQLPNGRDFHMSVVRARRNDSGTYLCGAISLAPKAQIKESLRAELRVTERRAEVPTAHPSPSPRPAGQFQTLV

human PD-1 (human), sequence (Q15116 25-288): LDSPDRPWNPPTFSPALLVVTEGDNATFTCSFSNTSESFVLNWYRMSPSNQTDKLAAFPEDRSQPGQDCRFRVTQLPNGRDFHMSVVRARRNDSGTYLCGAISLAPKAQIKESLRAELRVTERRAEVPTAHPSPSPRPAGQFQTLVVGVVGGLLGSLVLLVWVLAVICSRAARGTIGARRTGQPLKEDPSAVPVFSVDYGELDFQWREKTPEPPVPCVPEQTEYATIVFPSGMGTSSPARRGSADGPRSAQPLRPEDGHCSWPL

B1: G2 IgG1 mAb (antibody, INN chains, looked up, V domains shown)
VH: QVQLVQSGAEVKKPGASVKVSCKVSGYSLSKYDMSWVRQAPGKGLEWMGIIYTSGYTDYAQKFQGRVTMTEDTSTDTAYMELSSLRSEDTAVYYCATGNPYYTNGFNSWGQGTLVTVSS
VL: DIQMTQSPSSLSASVGDRVTITCQASQSPNNLLAWYQQKPGKAPKLLIYGASDLPSGVPSRFSGSGSGTDFTLTISSLQPEDFATYYCQNNYYVGPVSYAFGGGTKVEIK
modifications: IgG1
Regarding B1, in experiment [1], the % ADCC Activated T cells, mean came to 3.3%; the % ADCC PBMC, mean is 0.2%; the % Inhibition Proliferation, mean (SEB assay) came out at 36.9%; the % PD-1 Expression Inhibition, mean (SEB assay) was 50.8%. The same molecule registered a % T cell Proliferation Inhibition, mean (SEB assay) in experiment [1] of 56.5%. The Kd in experiment [2] amounted to 2.3 nM.
